# From the Human Domainome abundance scans (Beltran et al. 2025)
# ± gives the uncertainty stated by the source.
# B1: Spectrin alpha chain, erythrocytic 1, residues 979 to 1036; numbered along this chain, P02549 (parent)
# chain: EQRVMALYDFQARSPREVTMKKGDVLTLLSSINKDWWKVEAADHQGIVPAVYVRRLAH
# Variants of: B1
# Assay: abundance fitness (aPCA) (normalised: wild type 0, dead -1); higher = more abundant; growth selection in yeast, the domain comes from the species named
# Details: Homo sapiens
row,Variant,abundance fitness
1,R3F,0.074 ± 0.12
2,R3L,-0.14 ± 0.11
3,R3V,-0.828 ± 0.36
4,K21A,-0.561 ± 0.14
5,K21V,-0.781 ± 0.12
6,K21I,-0.779 ± 0.22
7,K21P,-0.578 ± 0.44
8,K21L,-0.731 ± 0.14
9,K21H,-0.304 ± 0.35
10,K38C,0.284 ± 0.19
11,K38F,0.208 ± 0.25
12,K38Y,-0.311 ± 0.28
13,K38E,0.281 ± 0.19
14,K38W,-0.168 ± 0.076
15,K38P,-0.701 ± 0.34
16,E1R,-0.215 ± 0.35
17,E1D,0.242 ± 0.32
18,M20G,-0.829 ± 0.2
19,M20K,-0.574 ± 0.41
20,M20C,-0.726 ± 0.21
21,M20T,-0.877 ± 0.18
22,M20A,-0.791 ± 0.24
23,M20E,-0.726 ± 0.26
24,E17F,-0.594 ± 0.46

row,Variant,abundance fitness
1,E17K,-0.403 ± 0.46
2,E17S,-0.92 ± 0.41
3,E17R,-0.778 ± 0.21
4,E17A,-0.64 ± 0.23
5,E17Q,-0.239 ± 0.31
6,E17N,-0.693 ± 0.32
7,S31Y,-0.252 ± 0.17
8,S31M,-0.04 ± 0.22
9,S31N,-0.224 ± 0.5
10,S31R,-0.282 ± 0.082
11,S31C,-0.157 ± 0.23
12,S31I,0.495 ± 0.26
13,S31A,0.092 ± 0.06
14,S31Q,0.225 ± 0.17
15,L26R,-0.819 ± 0.38
16,L26F,-0.237 ± 0.32
17,L26C,-0.046 ± 0.44
18,V51S,0.579 ± 0.08
19,V51R,0.643 ± 0.079
20,V51M,0.149 ± 0.12
21,V51K,0.525 ± 0.14
22,V51H,0.216 ± 0.26
23,V51Q,0.126 ± 0.19
24,I47M,0.561 ± 0.11

row,Variant,abundance fitness
1,I47C,-0.226 ± 0.41
2,I47E,-0.727 ± 0.43
3,I47Y,0.304 ± 0.23
4,I47F,0.349 ± 0.21
5,T27C,-0.627 ± 0.32
6,T27A,-0.975 ± 0.32
7,T27V,-0.396 ± 0.088
8,A6Y,-0.794 ± 0.31
9,A6N,-0.44 ± 0.37
10,A6K,-0.73 ± 0.28
11,A6R,-0.767 ± 0.17
12,A6C,-0.048 ± 0.27
13,A6V,-0.861 ± 0.13
14,A6P,-0.882 ± 0.19
15,A6T,-0.685 ± 0.41
16,H58P,0.358 ± 0.2
17,H58Y,0.141 ± 0.27
18,H58S,0.088 ± 0.31
19,N33S,-0.35 ± 0.34
20,N33Q,-0.494 ± 0.28
21,N33A,-0.751 ± 0.17
22,R13L,-0.742 ± 0.12
23,R13W,-0.738 ± 0.24
24,R13K,-0.414 ± 0.26

row,Variant,abundance fitness
1,R13C,-0.316 ± 0.23
2,R13G,-0.527 ± 0.079
3,R13S,-0.221 ± 0.15
4,A50L,-0.844 ± 0.2
5,A50P,-0.847 ± 0.4
6,A50G,-0.967 ± 0.19
7,A50V,-0.79 ± 0.29
8,P49T,-0.477 ± 0.37
9,P49K,-0.47 ± 0.42
10,P49Y,-0.72 ± 0.36
11,P49Q,-0.898 ± 0.21
12,P49N,-0.694 ± 0.14
13,P49E,-0.854 ± 0.18
14,P49W,-0.792 ± 0.41
15,P49V,-0.797 ± 0.36
16,P49A,-0.932 ± 0.38
17,V25L,-1.01 ± 0.49
18,V25R,-0.469 ± 0.14
19,V25S,-0.887 ± 0.34
20,V25I,-0.099 ± 0.21
21,V25H,-0.432 ± 0.14
22,V25M,-0.425 ± 0.13
23,V25E,0.059 ± 0.29
24,V4C,-0.52 ± 0.33

row,Variant,abundance fitness
1,V4A,-0.945 ± 0.25
2,V4T,-1.04 ± 0.23
3,A12F,-0.627 ± 0.41
4,A12G,-0.779 ± 0.2
5,A12V,-0.848 ± 0.38
6,A12M,-0.891 ± 0.41
7,A12K,-0.71 ± 0.47
8,A12R,-0.389 ± 0.17
9,Q2G,-0.187 ± 0.17
10,Q2V,-0.384 ± 0.37
11,Q2A,-0.002 ± 0.27
12,Q2R,-0.401 ± 0.17
13,F10W,0.365 ± 0.085
14,F10P,-0.712 ± 0.2
15,F10S,-0.707 ± 0.21
16,F10A,-0.778 ± 0.1
17,F10C,-1.09 ± 0.33
18,R54G,-0.491 ± 0.16
19,R54S,-0.588 ± 0.29
20,R54A,-0.351 ± 0.17
21,R54W,-0.668 ± 0.34
22,R54E,-0.254 ± 0.33
23,R54Q,0.052 ± 0.26
24,D9E,-1.01 ± 0.41

row,Variant,abundance fitness
1,D9G,-0.652 ± 0.11
2,D9W,-1.02 ± 0.2
3,D9R,-0.943 ± 0.23
4,D9A,-0.166 ± 0.15
5,S14L,-0.866 ± 0.21
6,S14T,-0.069 ± 0.094
7,S14D,0.134 ± 0.24
8,V39K,-0.742 ± 0.43
9,V39P,-0.319 ± 0.44
10,V39S,-0.886 ± 0.13
11,V39R,-0.852 ± 0.24
12,V39W,-0.564 ± 0.2
13,K22W,-0.725 ± 0.2
14,K22A,-0.664 ± 0.17
15,W37G,-0.596 ± 0.31
16,W37C,-0.386 ± 0.25
17,W37D,-0.644 ± 0.23
18,W37L,0.323 ± 0.059
19,P15G,-0.46 ± 0.1
20,P15T,-0.293 ± 0.23
21,P15L,-0.705 ± 0.2
22,P15V,-0.561 ± 0.15
23,P15D,0.163 ± 0.16
24,P15A,-0.252 ± 0.11

row,Variant,abundance fitness
1,P15S,-0.178 ± 0.093
2,P15E,-0.077 ± 0.17
3,H44Y,-0.804 ± 0.41
4,H44S,0.03 ± 0.1
5,H44K,0.555 ± 0.49
6,H44V,-0.156 ± 0.12
7,H44Q,0.119 ± 0.2
8,H44T,-0.107 ± 0.23
9,H44C,-0.016 ± 0.35
10,H44P,-0.95 ± 0.17
11,H44A,-0.051 ± 0.13
12,L7P,-0.76 ± 0.14
13,L7K,-0.176 ± 0.35
14,L7D,-0.135 ± 0.48
15,G46L,-0.227 ± 0.17
16,G46E,-0.023 ± 0.27
17,G46C,-0.361 ± 0.34
18,G46Y,-0.897 ± 0.25
19,Q45A,-0.171 ± 0.13
20,Q45C,-0.103 ± 0.24
21,Q45P,-0.565 ± 0.28
22,Q45V,0.1 ± 0.17
23,Q45S,-0.004 ± 0.094
